Laboratory results published in article PMC4389238, “Non-canonical active site architecture of the radical SAM thiamin pyrimidine synthase” (Nature Communications, 2015).

Experiments:
[1] = biological target: the molecule itself; assay: crystal structure; AtThiC with [4Fe-4S] cluster co-crystallised anaerobically with combinations of IRN, AIR, SAH, 5'-dAdo, L-Met, Zn or Fe; hanging drop, room temperature; space groups P3(2)21 and C2; 1.25-1.84 Å
[2] = biological target: the molecule itself; assay: crystal structure; holo CcThiC with [4Fe-4S] cluster, no substrates; anaerobic, 140 mM HEPES pH 9.2, 7.5% PEG8000; space group C2; 2.93 Å

B1: Arabidopsis thaliana ThiC, ΔN71-AtThiC (residues 1-71 removed) (enzyme)
chain: not shown
notes: ThiC (thiamin pyrimidine synthase, HMP-P synthase), Arabidopsis thaliana; full-length protein has 644 residues; Holds a [4Fe-4S] cluster and an additional metal (Fe or Zn); The final 55 residues are not visible in the electron density.}; also called thiamin pyrimidine synthase; not shown: His6, N-terminal, cleaved
[1]
  binding result: binds

B2: Caulobacter crescentus ThiC, full length (enzyme)
chain: not shown
notes: ThiC (thiamin pyrimidine synthase), Caulobacter crescentus; Holds a [4Fe-4S] cluster; also called CcThiC; holo CcThiC; not shown: His6, N-terminal, cleaved
[2]
  binding result: binds
